Test [1] addresses Notch1 (as used for the SPR of Example 1). The test can be described thus: SPR. In general terms: SPR reads the build-up and loss of mass on a sensor chip optically.
The target in test [2] is T1, hNotch 1 (EGF6-EGF13) (human, UniProt P46531 218-526, biotinylated (site not stated)).
T1 construct: domain: EGF6-EGF13; Immobilised on the SPR chip through biotin; also called biotinylated Notch1
The test can be described thus: SPR, biotinylated Notch on chip, 1:1 equilibrium binding model. The protocol: (§1) 100. Next, the binding affinity of each individual variant was determined by surface plasmon resonance. Biotinylated Notch1, Notch2, or Notch3 proteins containing the domains indicated above were immobilized on a surface plasmon resonance sensor chip. Increasing concentrations of WT DLL4 or DLL4.v3 were then flowed over the chip and dissociation constants were determined by fitting the data to a 1:1 equilibrium binding model. As shown in FIG. 4 and Table 3, the binding affinity of DLL4.v3 was at least 3 orders of magnitude stronger than wildtype.

The target in test [3] is T2, hNotch 2 (EGF6-EGF13) (human, UniProt Q04721 221-530, biotinylated (site not stated)).
T2 construct: domain: EGF6-EGF13; Immobilised on the SPR chip through biotin; also called biotinylated Notch2
T2 sequence (looked up): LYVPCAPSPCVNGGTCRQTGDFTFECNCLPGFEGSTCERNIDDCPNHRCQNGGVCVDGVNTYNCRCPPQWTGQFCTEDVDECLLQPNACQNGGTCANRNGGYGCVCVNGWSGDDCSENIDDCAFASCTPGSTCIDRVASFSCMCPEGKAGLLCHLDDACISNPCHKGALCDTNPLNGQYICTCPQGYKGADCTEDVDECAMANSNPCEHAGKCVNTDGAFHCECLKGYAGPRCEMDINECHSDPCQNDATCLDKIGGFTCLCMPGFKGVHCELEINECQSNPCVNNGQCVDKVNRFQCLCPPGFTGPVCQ
The test is described as above. The procedure: as §1

For test [4], the target named is T3, hNotch 3 (EGF5-EGF12) (human, UniProt Q9UM47 197-505, biotinylated (site not stated)).
T3 construct: domain: EGF5-EGF12; Immobilised on the SPR chip through biotin; also called biotinylated Notch3
T3 sequence (looked up): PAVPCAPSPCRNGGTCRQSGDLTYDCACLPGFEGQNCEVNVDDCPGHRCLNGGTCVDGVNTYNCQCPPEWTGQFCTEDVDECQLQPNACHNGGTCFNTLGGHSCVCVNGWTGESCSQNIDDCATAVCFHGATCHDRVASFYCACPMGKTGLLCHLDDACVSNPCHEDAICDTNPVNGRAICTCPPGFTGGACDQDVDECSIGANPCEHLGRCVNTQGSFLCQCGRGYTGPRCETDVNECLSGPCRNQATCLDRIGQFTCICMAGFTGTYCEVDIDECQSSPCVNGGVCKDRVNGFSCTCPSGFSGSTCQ
The description is as above. The procedure:
as §1

In test [5] the target is T1, hNotch 1 (EGF6-EGF13). The test can be described thus: SPR. The protocol:
as §1

Test [6] deals with T2, hNotch 2 (EGF6-EGF13). As to the kind of experiment: SPR. The protocol: as §1
Test [7] addresses T3, hNotch 3 (EGF5-EGF12). As to the kind of experiment: SPR. The protocol: as §1

Some results are limits rather than exact numbers.

For orientation: Kd means a measure of binding affinity in units of concentration. Higher therefore signals a looser complex. “wild type rat DLL4 (from UniProt D3ZHH1 27-401) (ligand)” came in with a Kd in test [1] of 12.7 µM.

B1: WT hDLL4 (N-EGF3) (ligand)
chain: SGVFQLQLQEFINERGVLASGRPCEPGCRTFFRVCLKHFQAVVSPGPCTFGTVSTPVLGTNSFAVRDDSSGGGRNPLQLPFNFTWPGTFSLIIEAWHAPGDDLRPEALPPDALISKIAIQGSLAVGQNWLLDEQTSTLTRLRYSYRVICSDNYYGDNCSRLCKKRNDHFGHYVCQPDGNLSCLPGWTGEYCQQPICLSGCHEQNGYCSKPAECLCRPGWQGRLCNECIPHNGCRHGTCSTPWQCTCDEGWGGLFCDQDLNYCTHHSPCKNGATCSNSGQRSYTCTCRPGYTGVDCE
notes: also called WT DLL4; wildtype
Consider B1, for which the Kd with hNotch 1 (EGF6-EGF13) [2] came to 17.9 µM; in the test with hNotch 2 (EGF6-EGF13) [3], 35.7 µM; in the test with hNotch 3 (EGF5-EGF12) [4], 22 µM.

B2: 3a.5_E12 (N-EGF3) (ligand)
chain: SSVFQLQLQEFINERGVLASGRPCEPGCRTFFRVCLKHFQAVVSPGPCTFGTVSTPVLGTNSFAVRDDSSGGGRNPLQLPLNFTWPGTFSLIIEAWHAPGDDLRPEALPPDALISKFAIQGSLAVGQNWLLDEQTSTLTRLRYSYRVICSDNYYGDNCSRLCKKRNDYFGHYVCQPDGNPSCLPGWTGEYCQQPICLSGCHEQNGYCSKPAECLCRPGWQGRLCNECIPHPGCRHGTCSTPWQCLCDEGWGGLYCDQDLNYCTHHSPCKNGATCRNSGPRSYTCTCRPGYTGVDCE
notes: also called DLL4.v3; N3a.5_E12
For B2, the Kd with hNotch 1 (EGF6-EGF13) [2] came to 0.02 µM; with hNotch 2 (EGF6-EGF13) [3], 0.0314 µM; in the test with hNotch 3 (EGF5-EGF12) [4] it was 0.0273 µM. The “binding affinity relative to wildtype” value with hNotch 1 (EGF6-EGF13) [5] was around 1000 fold; with hNotch 2 (EGF6-EGF13) [6], at least 1000 fold; with hNotch 3 (EGF5-EGF12) [7] it was around 1000 fold.

Source of the values: patent US20220241335A1 (H LEE MOFFITT CANCER CENTER AND RESEARCH INST5ITUTE, published 2022).
